Marks after values point to notes of the source that are not given here.
Columns and labels:
H. pylori (strain AH244) = assay type: in vivo; details: BALB/c mice infected with strain AH244, 100 μg antigen + 10 μg CT orally, compared to control; FIGS. 3 and 4
[1] = test system: CD4+ or CD8+ T cells and IgA containing (IgACC) plasma cells in gastric tissue; experiment: Local gastric immune response to immunization, immunostaining of gastric cryosections; assay type: in vivo, C57BL/6 mice
Description: Longitudinal sections of gastric tissues from the esophageal to the duodenal junction were embedded in OCT embedding compound, frozen in liquid nitrogen, and cryosections immunostained with monoclonal antibodies recognizing CD4^+ or CD8^+T cells or with antisera against mouse IgA for identification of IgA containing (IgACC) plasma cells (Pappo et al., Infect. Immun. 63:1246-1252, 1995). The degree of local gastric immune response was expressed quantitatively as the number of CD4^+, CD8^+ or IgACC cells per mm^2 of gastric region examined.
(§1) Protective activity of purified recombinant H. pylori vac36 (SEQ ID NO: 5146) antigen The ability of purified recombinant vac36 (SEQ ID NO: 5146) antigen derived from H. pylori to interfere with the establishment of an H. pylori infection was examined in mice. […]. The mice were challenged 2 weeks later on 3 consecutive days by oral administration of 10^8 H. pylori organisms. The experiment was terminated 2 weeks post-challenge, and the H. pylori infection level assessed by bacterial colony counts and by quantitative urease assays.

H. pylori = experiment: Protective oral immunization and challenge with live H. pylori, quantitative urease assay and bacterial colony counts of gastric tissue; assay type: in vivo, C57BL/6 mice
Experimental: A murine model of H. pylori infection was produced by infection of C57BL/6 mice with H. pylori Sydney strain SS1 and was used to assess the efficacy of recombinant H. pylori vac36. […] Dose-response studies have shown 100% infection rates of inbred C57BL/6 and Balb/C mice at 8 weeks post-challenge with a single inoculation of […] organisms.
The presence of H. pyloriorganisms in gastric tissue was determined by culture of gastric tissue and by a quantitative urease assay. In the latter method, a longitudinal segment of antrum, representing approximately ¼ of the total antral region was placed in 1 ml of urea broth. After 4 hr, the extent of color change resulting from urea hydrolysis and increased pH was quantiated by spectrophotometric measurement of A550 (Fox et al., Immunol. 88:400-406, 1996). The assay sensitivity is ˜10^3 H. pylori organisms. A positive (H. pylori-infected) gastric tissue was defined as that sample showing 2 standard deviations above the mean A550 value derived from a group of unchallenged uninfected age-matched control mice.
as §1

[2] = molecular target: T1, H. pylori peptidyl-propyl cis-trans isomerase (PPIase) (Helicobacter pylori, UniProt Q9ZJH5); experiment: PPIase enzymatic assay, α-chymotrypsin coupled, succinyl-Ala-Ala-Pro-Phe-p-nitroanilide; assay type: biochemical
T1 construct: His-Tag (N); made in house; host or cells: E. coli BL21(DE3)
T1 sequence (Q9ZJH5 whole entry, looked up): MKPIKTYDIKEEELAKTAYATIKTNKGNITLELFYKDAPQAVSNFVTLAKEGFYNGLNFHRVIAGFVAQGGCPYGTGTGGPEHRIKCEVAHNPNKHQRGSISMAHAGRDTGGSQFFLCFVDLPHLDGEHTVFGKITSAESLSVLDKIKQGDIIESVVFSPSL
Description: The assay is essentially as described by Fisher (Fischer, G., et. al. (1984) Biomed. Biochim. Acta 43:1101-1111). The assay measures the cis-trans isomerization of the Ala-Pro bond in the test peptide N-succinyl-Ala-Ala-Pro-Phe-p-nitroanilide (Sigma # S-7388, lot # 84H5805). The assay is coupled with α-chymotrypsin, where the ability of the protease to cleave the test peptide occurs only when the Ala-Pro bond is in trans. The conversion of the test peptide to the trans isomer in the assay is followed at 390 nm on a Beckman Model DU-650 spectophotometer. The data are collected every second with an average scanning of time of 0.5 second. Assays are carried out in 35 mM Hepes, pH 8.0, in a final volume of 400 ul, with 10 μM α-chymotrypsin (type 1-5 from bovine Pancreas, Sigma # C-7762, lot 23H7020) and 10 nM PPIase. To initiate the reaction, 10 μl of the substrate (2 mM N-Succinyl-Ala-Ala-Pro-Phe-p-nitroanilide in DMSO) is added to 390 μl of reaction mixture at room temperature.
The PPIase activity was assayed using the chromogenic tetrapeptide substrate succinyl-Ala-Ala-Pro-Phe-p-nitroanilide. An initial velocity of 4.9 μmole/min/mg protein was measured with the purified enzyme (FIG. 5). This corresponds to a kcat of 1.6 sec^−1 which is similar to the one obtained for the E. coli PPIase (Liu, J. and Walsh, C. T. (1990) Proc. Natl. Acad. Sci. USA 87:4028-4032) and the one from porcine kidney (Fischer, G. (1989) Nature 337:476-478).
The recombinant protein has a high catalytic efficiency of 2.06×10^9 M^−1 s^−1 when the assay is measured at 25° C. These values are one to two orders of magnitude higher than that observed for other characterized PPIases. However, in those studies, the ppiase assay was conducted at 10° C., which may account for the discrepency.

[3] = mean number of cells/mm^2 of gastric region ± SEM, immunized mice upon challenge with H. pylori

B1: SEQ ID NO: 880: H. pylori antigen of the therapeutic immunization study; number does not match the antigen list of Tables 6 and 7 (protein, listed as Helicobacter pylori)
chain: YPCHKRFSLTHSQKESPQSNSPKGVKITLILVRKFKTPSINTLSNKIAIIITCCFLSESVKLLGYSGLKNFRILRMLETSSHFLKSFRLKRYIGFLLISLALLITPFVRIDGAHLFLISFEHKQLHFLGKNL
modifications: double-stranded, circular; misc_feature (B) LOCATION 1...396; hypothetical: NO; anti-sense: NO
H. pylori (strain AH244)
  degree of colonization of the antrum: lower

B2: SEQ ID NO: 465: H. pylori antigen of the therapeutic immunization study; number does not match the antigen list of Tables 6 and 7 (protein, listed as Helicobacter pylori)
chain: MGCSFIFKKVRVYSKMLVALGLSSVLIGCAMNPSAETKKPNDAKNQQPVQTHERMTTSSEHVTPLDFNYPVHIVQAPQNHHVVGILMPRIQVSDNLKPYIDKFQDALINQIQTIFEKRGYQVLRFQDEKALNVQDKKKIFSVLDLKGWVGILEDLKMNLKDSHSPI
modifications: double-stranded, circular; misc_feature (B) LOCATION 1...498; hypothetical: NO; anti-sense: NO
H. pylori (strain AH244)
  reduction and/or eradication of the H. pylori infection (therapeutic immunization effect): did not differ from control

B3: SEQ ID NO: 677: H. pylori antigen of the therapeutic immunization study; number does not match the antigen list of Tables 6 and 7 (protein, listed as Helicobacter pylori)
chain: SDCMALLEIIHYPSKILRTISKEVVSFDSKLHQQLDDMHETMIASEGIGLAAIQVGLPLRMLIINLPQEDGVQHKEDCLEIINPKWIETKGSIMYREGCLSVPGFYEEVERFEKVKIEYQNRFAEVKILEASELLAVAIQHEIDHLNGVLFVDKLSILKRKKFEKELKELQKKQKHK
modifications: double-stranded, circular; misc_feature (B) LOCATION 1...531; hypothetical: NO; anti-sense: NO
H. pylori (strain AH244)
  reduction and/or eradication of the H. pylori infection (therapeutic immunization effect): did not differ from control

B4: vac36: recombinant H. pylori outer membrane protein with terminal phenylalanine residue and C-terminal tyrosine cluster, aa SEQ ID NO: 5146, nt SEQ ID NO: 384 (protein, listed as Helicobacter pylori)
chain: MKQNLKPFKMIKENLMTQSQKVRFLAPLSLALSLSFNPVGAEEDGGFMTFGYELGQVVQQVKNPGKIKAEELAGLLNSTTTNNTNINIAGTGGNVAGTLGNLFMNQLGNLIDLYPTLKTNNLHQCGSTNSGNGATAAAATNNSPCFQGNLALYNEMVDSIKTLSQNISKNIFQGDNNTTSANLSNQLSELNTASVYLTYMNSFLNANNQAGGIFQNNTNQAYENGVTAQQIAYVLKQASITMGPSGDSGAAGAFLDAALAQHVFNSANAGNDLSAKEFTSLVQNIVNNSQNALTLANNANISNSTGYQVSYGGNIDQARSTQLLNNTTNTLAKVTALNNELKANPWLGNFAAGNSSQVNAFNGFITKIGYKQFFGENKNVGLRYYGFFSYNGAGVGNGPTYNQVNLLTYGVGTDVLYNVFSRSFGSRSLNAGFFGGIQLAGDTYISTLRNSPQLASRPTATKFQFLFDVGLRMNFGILKKDLKSHNQHSIEIGVQIPTIYNTYYKAGGAEVKYFRPYSVYWVYGYAF
modifications: misc_feature (B) LOCATION 1...527; hypothetical: YES
[1]; compared with unimmunized H. pylori-infected mice
  numbers of CD4+ T cells and of IgACC recruited in the gastric tissues: Greater numbers
[1]; [3]
  CD4+ antrum: 31 ± 8 cells/mm^2
  CD4+ cardia: 33 ± 9^a cells/mm^2
  CD4+ corpus: 54 ± 8 cells/mm^2
  CD8+ antrum: 1 ± 1 cells/mm^2
  CD8+ cardia: 3 ± 2 cells/mm^2
  CD8+ corpus: 0 cells/mm^2
  IgACC antrum: 67 ± 13 cells/mm^2
  IgACC cardia: 24 ± 12 cells/mm^2
  IgACC corpus: 79 ± 16 cells/mm^2
H. pylori; C57BL/6 mice immunized orally, challenged with live H. pylori
  level of colonization by H. pylori, as assessed by gastric urease activity and bacterial count assays: significantly lower level of colonization
H. pylori; bacterial counts in gastric tissue, mean ± SEM, oral immunization 4 times weekly with 10 μg CT, challenge with 10^8 H. pylori, 2 weeks post-challenge
  H. pylori burden: 55,800 ± 12,599 colony forming units
H. pylori; mean A550 ± SEM of duplicate antral samples, n = 10 mice/group, oral immunization 4 times weekly with 10 μg CT, challenge with 10^8 H. pylori, 2 weeks post-challenge
  Urease Activity: 0.199 ± 0.080 A550

B5: H. pylori PPIase: recombinant PPI from H. pylori expressed in E. coli using pET-28b (protein)
chain: FIAIIEHLNDKSLSQRFMMKPIKTYDIKEEELAKTAYATIKTNKGNITLELFYKDAPQAVSNFVTLAKEGFYNGLNFHRVIAGFVAQGGCPYGTGTGGPEHRIKCEVAHNPNKHQRGSISMAHAGRDTGGSQFFLCFVDLPHLDGEHTVFGKITSAESLSVLDKIKQGDIIESVVFSPSL
modifications: left off: small tags and cut ends
notes: recombinant PPI from H. pylori expressed in E. coli using pET-28b
[2]; assay measured at 25° C.
  catalytic efficiency: 2.06e+09 M⁻¹ s⁻¹
[2]; purified recombinant enzyme
  kcat: 1.6 s⁻¹
[2]; purified recombinant enzyme, substrate succinyl-Ala-Ala-Pro-Phe-p-nitroanilide
  initial velocity: 4.9 μmole/min/mg protein

Reference: patent publication US20040052799A1, “Nucleic acid and amino acid sequences relating to Helicobacter pylori for diagnostics and therapeutics” (Astra Aktiebolag, priority 1996, published 2004)
